Earlier results on two substances are cited in publication PMC6802610.

The target of one data set is Rab1 (Homo sapiens) (UniProt P62820).
For the next data set, the target named is GDI (Homo sapiens) (UniProt P31150).
Chain of GDI (Homo sapiens) (P31150 whole entry): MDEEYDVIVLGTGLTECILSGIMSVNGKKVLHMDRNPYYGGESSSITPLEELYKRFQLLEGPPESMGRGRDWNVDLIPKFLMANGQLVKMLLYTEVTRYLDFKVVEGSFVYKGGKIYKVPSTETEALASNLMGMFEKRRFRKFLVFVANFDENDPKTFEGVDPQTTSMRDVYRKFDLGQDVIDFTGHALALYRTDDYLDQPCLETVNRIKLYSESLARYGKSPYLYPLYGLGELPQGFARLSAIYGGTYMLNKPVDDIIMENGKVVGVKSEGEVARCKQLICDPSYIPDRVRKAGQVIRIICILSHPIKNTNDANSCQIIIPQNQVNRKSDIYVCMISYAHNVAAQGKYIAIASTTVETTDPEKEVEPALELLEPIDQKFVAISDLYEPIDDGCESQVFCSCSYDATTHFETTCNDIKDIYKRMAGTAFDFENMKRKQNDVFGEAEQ

Chain of Rab1 (P62820 2-205): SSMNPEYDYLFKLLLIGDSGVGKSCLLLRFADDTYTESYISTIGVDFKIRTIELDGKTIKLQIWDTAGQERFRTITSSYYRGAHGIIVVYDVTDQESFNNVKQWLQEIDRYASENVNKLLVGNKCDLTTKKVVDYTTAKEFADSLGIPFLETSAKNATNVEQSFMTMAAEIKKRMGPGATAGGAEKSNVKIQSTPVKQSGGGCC
Chain of Rab1 (Homo sapiens) (P62820 2-205): as above
Chain of SidM/DrrA (Q5ZSQ3 whole entry): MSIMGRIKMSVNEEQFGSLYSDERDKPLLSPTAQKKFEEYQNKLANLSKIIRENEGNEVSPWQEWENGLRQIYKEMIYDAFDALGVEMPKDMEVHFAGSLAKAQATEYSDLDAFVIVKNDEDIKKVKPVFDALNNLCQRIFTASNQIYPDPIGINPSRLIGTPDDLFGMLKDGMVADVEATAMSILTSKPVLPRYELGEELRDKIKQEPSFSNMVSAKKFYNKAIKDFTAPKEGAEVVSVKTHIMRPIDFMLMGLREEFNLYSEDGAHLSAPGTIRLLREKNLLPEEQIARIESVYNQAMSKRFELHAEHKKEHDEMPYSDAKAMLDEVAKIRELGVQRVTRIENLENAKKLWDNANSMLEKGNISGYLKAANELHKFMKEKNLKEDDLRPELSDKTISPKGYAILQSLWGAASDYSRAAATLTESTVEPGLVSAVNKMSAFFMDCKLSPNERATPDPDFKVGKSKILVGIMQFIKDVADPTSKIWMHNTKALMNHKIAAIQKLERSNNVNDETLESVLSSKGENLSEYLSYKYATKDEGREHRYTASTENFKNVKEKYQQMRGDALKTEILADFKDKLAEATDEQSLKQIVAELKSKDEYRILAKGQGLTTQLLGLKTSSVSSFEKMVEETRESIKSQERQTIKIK

Regarding SidM/DrrA (from UniProt Q5ZSQ3), in the data set with Rab1 (Homo sapiens), the Kd was 0.084 µM.

Consider Rab1 (from UniProt P62820), for which the Kd in the data set with GDI (Homo sapiens) is 0.02 µM.

Broadly, the Kd is the constant that tells how readily two partners part at equilibrium.
